Data reported in patent US20160272683A1 (Novo Nordisk, published 2016).
Numbered stars: 1 amine (or outer) side, 2 acyl side, 3 side chain; on linkers, the order of the positions; unused ones are H or OH. Side chains are listed from the residue outwards. * marks the point of attachment. C20 diacid = O=C(O)CCCCCCCCCCCCCCCCCCC(=O)*; γGlu = O=C(O)[C@H](CCC(=O)[*:2])N[*:1]; C12 diacid = O=C(O)CCCCCCCCCCC(=O)*

T1: human amylin 3(a) receptor (human calcitonin receptor co-expressed with RAMP-3) (human, UniProt P30988 25-474; O60896 24-148, limits assumed)
T1 sequence (looked up) 1: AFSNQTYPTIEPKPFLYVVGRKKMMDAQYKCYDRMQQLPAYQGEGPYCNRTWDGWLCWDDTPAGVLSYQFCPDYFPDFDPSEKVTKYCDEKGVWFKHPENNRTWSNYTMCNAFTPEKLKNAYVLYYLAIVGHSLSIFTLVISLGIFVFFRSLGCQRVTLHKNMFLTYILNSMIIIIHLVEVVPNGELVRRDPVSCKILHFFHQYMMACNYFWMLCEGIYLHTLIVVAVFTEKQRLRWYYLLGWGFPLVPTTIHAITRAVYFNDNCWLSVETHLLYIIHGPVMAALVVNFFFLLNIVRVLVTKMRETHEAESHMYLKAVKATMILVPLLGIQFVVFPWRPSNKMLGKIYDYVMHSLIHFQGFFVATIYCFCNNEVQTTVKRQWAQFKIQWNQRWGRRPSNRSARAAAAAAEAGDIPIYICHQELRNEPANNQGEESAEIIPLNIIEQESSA
T1 sequence (looked up) 2: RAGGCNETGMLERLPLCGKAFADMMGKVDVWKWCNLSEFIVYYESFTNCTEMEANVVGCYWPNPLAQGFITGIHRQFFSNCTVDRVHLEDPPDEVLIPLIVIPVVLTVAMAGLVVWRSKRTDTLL

T2: human calcitonin receptor (human, UniProt P30988 25-474)
T2 sequence (looked up): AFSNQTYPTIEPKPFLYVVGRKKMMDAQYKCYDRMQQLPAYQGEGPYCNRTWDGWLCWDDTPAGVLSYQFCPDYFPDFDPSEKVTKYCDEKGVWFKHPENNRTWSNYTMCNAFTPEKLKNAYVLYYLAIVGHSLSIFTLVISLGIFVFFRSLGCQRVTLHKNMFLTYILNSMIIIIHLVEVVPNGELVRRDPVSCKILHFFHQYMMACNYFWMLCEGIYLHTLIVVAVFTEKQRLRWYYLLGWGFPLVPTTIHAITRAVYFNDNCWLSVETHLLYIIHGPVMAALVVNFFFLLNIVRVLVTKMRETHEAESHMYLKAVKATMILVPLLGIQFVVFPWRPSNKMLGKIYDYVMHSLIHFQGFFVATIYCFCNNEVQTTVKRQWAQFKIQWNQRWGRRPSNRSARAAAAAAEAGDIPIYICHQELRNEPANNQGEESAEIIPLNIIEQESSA


Tests used:
[1] = target: T1, human amylin 3(a) receptor (human …); assay: cell-based or functional assay
[2] = target: T2, human calcitonin receptor; assay: cell-based or functional assay

| Binder | hAmylin-R funct. EC50 (pM) [1] [pM] | hCTR funct. EC50 (pM) [2] [pM] |
| --- | --- | --- |
| {C20 diacid-γGlu}-ASELSTAALGRLSAELHELATLPHTETGSGSP-NH2 (SMILES CC(C)C[C@H](NC(=O)[C@H](C)NC(=O)[C@H](C)NC(=O)[C@@H](NC(=O)[C@H](CO)NC(=O)[C@H](CC(C)C)NC(=O)[C@H](CCC(=O)O)NC(=O)[C@H](CO)NC(=O)[C@H](C)NC(=O)CC[C@H](NC(=O)CCCCCCCCCCCCCCCCCCC(=O)O)C(=O)O)[C@@H](C)O)C(=O)NCC(=O)N[C@@H](CCCNC(=N)N)C(=O)N[C@@H](CC(C)C)C(=O)N[C@@H](CO)C(=O)N[C@@H](C)C(=O)N[C@@H](CCC(=O)O)C(=O)N[C@@H](CC(C)C)C(=O)N[C@@H](Cc1c[nH]cn1)C(=O)N[C@@H](CCC(=O)O)C(=O)N[C@@H](CC(C)C)C(=O)N[C@@H](C)C(=O)N[C@H](C(=O)N[C@@H](CC(C)C)C(=O)N1CCC[C@H]1C(=O)N[C@@H](Cc1c[nH]cn1)C(=O)N[C@H](C(=O)N[C@@H](CCC(=O)O)C(=O)N[C@H](C(=O)NCC(=O)N[C@@H](CO)C(=O)NCC(=O)N[C@@H](CO)C(=O)N1CCC[C@H]1C(N)=O)[C@@H](C)O)[C@@H](C)O)[C@@H](C)O) [[N-terminal(C20 diacid-gGlu), des1, 25H, 30S, 31G]mimylin] | 27 | 18 |
| Ac-ASK([γGlu-C20 diacid])LSTAALGRLSAELHELATLPRTETGSGSP-NH2 [[N-terminal(acetyl), des1, 4K(C20 diacid-gGlu), 30S, 31G]mimylin] | 36 | 27 |
| {C20 diacid-γGlu}-ASELSTAALGRLSAELHELATLPRTETGSGSL-NH2 (SMILES CC(C)C[C@H](NC(=O)[C@H](CO)NC(=O)CNC(=O)[C@H](CO)NC(=O)CNC(=O)[C@@H](NC(=O)[C@H](CCC(=O)O)NC(=O)[C@@H](NC(=O)[C@H](CCCNC(=N)N)NC(=O)[C@@H]1CCCN1C(=O)[C@H](CC(C)C)NC(=O)[C@@H](NC(=O)[C@H](C)NC(=O)[C@H](CC(C)C)NC(=O)[C@H](CCC(=O)O)NC(=O)[C@H](Cc1c[nH]cn1)NC(=O)[C@H](CC(C)C)NC(=O)[C@H](CCC(=O)O)NC(=O)[C@H](C)NC(=O)[C@H](CO)NC(=O)[C@H](CC(C)C)NC(=O)[C@H](CCCNC(=N)N)NC(=O)CNC(=O)[C@H](CC(C)C)NC(=O)[C@H](C)NC(=O)[C@H](C)NC(=O)[C@@H](NC(=O)[C@H](CO)NC(=O)[C@H](CC(C)C)NC(=O)[C@H](CCC(=O)O)NC(=O)[C@H](CO)NC(=O)[C@H](C)NC(=O)CC[C@H](NC(=O)CCCCCCCCCCCCCCCCCCC(=O)O)C(=O)O)[C@@H](C)O)[C@@H](C)O)[C@@H](C)O)[C@@H](C)O)C(N)=O) [[N-terminal(C20 diacid-gGlu), des1, 30S, 31G, 33L]mimylin] | 55 | 31 |
| {C20 diacid-γGlu}-ASELSTAALGRLSEELHELATLPRTETGSGSP-NH2 (SMILES CC(C)C[C@H](NC(=O)[C@H](C)NC(=O)[C@H](C)NC(=O)[C@@H](NC(=O)[C@H](CO)NC(=O)[C@H](CC(C)C)NC(=O)[C@H](CCC(=O)O)NC(=O)[C@H](CO)NC(=O)[C@H](C)NC(=O)CC[C@H](NC(=O)CCCCCCCCCCCCCCCCCCC(=O)O)C(=O)O)[C@@H](C)O)C(=O)NCC(=O)N[C@@H](CCCNC(=N)N)C(=O)N[C@@H](CC(C)C)C(=O)N[C@@H](CO)C(=O)N[C@@H](CCC(=O)O)C(=O)N[C@@H](CCC(=O)O)C(=O)N[C@@H](CC(C)C)C(=O)N[C@@H](Cc1c[nH]cn1)C(=O)N[C@@H](CCC(=O)O)C(=O)N[C@@H](CC(C)C)C(=O)N[C@@H](C)C(=O)N[C@H](C(=O)N[C@@H](CC(C)C)C(=O)N1CCC[C@H]1C(=O)N[C@@H](CCCNC(=N)N)C(=O)N[C@H](C(=O)N[C@@H](CCC(=O)O)C(=O)N[C@H](C(=O)NCC(=O)N[C@@H](CO)C(=O)NCC(=O)N[C@@H](CO)C(=O)N1CCC[C@H]1C(N)=O)[C@@H](C)O)[C@@H](C)O)[C@@H](C)O) [[N-terminal(C20 diacid-gGlu), des1, 15E, 30S, 31G]mimylin] | 41 | 25 |
| {C20 diacid-γGlu}-ASELSTAALGRLSAELHELATLPRTETGSGSA-NH2 (SMILES CC(C)C[C@H](NC(=O)[C@H](C)NC(=O)[C@H](C)NC(=O)[C@@H](NC(=O)[C@H](CO)NC(=O)[C@H](CC(C)C)NC(=O)[C@H](CCC(=O)O)NC(=O)[C@H](CO)NC(=O)[C@H](C)NC(=O)CC[C@H](NC(=O)CCCCCCCCCCCCCCCCCCC(=O)O)C(=O)O)[C@@H](C)O)C(=O)NCC(=O)N[C@@H](CCCNC(=N)N)C(=O)N[C@@H](CC(C)C)C(=O)N[C@@H](CO)C(=O)N[C@@H](C)C(=O)N[C@@H](CCC(=O)O)C(=O)N[C@@H](CC(C)C)C(=O)N[C@@H](Cc1c[nH]cn1)C(=O)N[C@@H](CCC(=O)O)C(=O)N[C@@H](CC(C)C)C(=O)N[C@@H](C)C(=O)N[C@H](C(=O)N[C@@H](CC(C)C)C(=O)N1CCC[C@H]1C(=O)N[C@@H](CCCNC(=N)N)C(=O)N[C@H](C(=O)N[C@@H](CCC(=O)O)C(=O)N[C@H](C(=O)NCC(=O)N[C@@H](CO)C(=O)NCC(=O)N[C@@H](CO)C(=O)N[C@@H](C)C(N)=O)[C@@H](C)O)[C@@H](C)O)[C@@H](C)O) [[N-terminal(C20 diacid-gGlu), des1, 30S, 31G, 33A]mimylin] | 67 | 40 |
| Ac-ASELSTAALGRLSAK([γGlu-C20 diacid])LHELATLPRTETGSGSP-NH2 [[N-terminal(acetyl), des1, 16K(C20 diacid-gGlu), 30S, 31G]mimylin] | 21 | 28 |
| {C20 diacid-γGlu}-ASELSTAALGRLSAELHELATLPRTETGSGSS-NH2 (SMILES CC(C)C[C@H](NC(=O)[C@H](C)NC(=O)[C@H](C)NC(=O)[C@@H](NC(=O)[C@H](CO)NC(=O)[C@H](CC(C)C)NC(=O)[C@H](CCC(=O)O)NC(=O)[C@H](CO)NC(=O)[C@H](C)NC(=O)CC[C@H](NC(=O)CCCCCCCCCCCCCCCCCCC(=O)O)C(=O)O)[C@@H](C)O)C(=O)NCC(=O)N[C@@H](CCCNC(=N)N)C(=O)N[C@@H](CC(C)C)C(=O)N[C@@H](CO)C(=O)N[C@@H](C)C(=O)N[C@@H](CCC(=O)O)C(=O)N[C@@H](CC(C)C)C(=O)N[C@@H](Cc1c[nH]cn1)C(=O)N[C@@H](CCC(=O)O)C(=O)N[C@@H](CC(C)C)C(=O)N[C@@H](C)C(=O)N[C@H](C(=O)N[C@@H](CC(C)C)C(=O)N1CCC[C@H]1C(=O)N[C@@H](CCCNC(=N)N)C(=O)N[C@H](C(=O)N[C@@H](CCC(=O)O)C(=O)N[C@H](C(=O)NCC(=O)N[C@@H](CO)C(=O)NCC(=O)N[C@@H](CO)C(=O)N[C@@H](CO)C(N)=O)[C@@H](C)O)[C@@H](C)O)[C@@H](C)O) [[N-terminal(C20 diacid-gGlu), des1, 30S, 31G, 33S]mimylin] | 63 | 38 |
| Ac-ASELSTAALGRLSAELHK([γGlu-C20 diacid])LATLPRTETGSGSP-NH2 [[N-terminal(acetyl), des1, 19K(C20 diacid-gGlu), 30S, 31G]mimylin] | 32 | 19 |
| {C12 diacid}-EASELSTAALGRLSAELHELATLPRTETGPESP-NH2 [[N-terminal(C12 diacid)]mimylin] | 23 | 8 |
| {C20 diacid-γGlu}-ASELSTAALGRLSAELHELATLPRTETGSGSG-NH2 (SMILES CC(C)C[C@H](NC(=O)[C@H](C)NC(=O)[C@H](C)NC(=O)[C@@H](NC(=O)[C@H](CO)NC(=O)[C@H](CC(C)C)NC(=O)[C@H](CCC(=O)O)NC(=O)[C@H](CO)NC(=O)[C@H](C)NC(=O)CC[C@H](NC(=O)CCCCCCCCCCCCCCCCCCC(=O)O)C(=O)O)[C@@H](C)O)C(=O)NCC(=O)N[C@@H](CCCNC(=N)N)C(=O)N[C@@H](CC(C)C)C(=O)N[C@@H](CO)C(=O)N[C@@H](C)C(=O)N[C@@H](CCC(=O)O)C(=O)N[C@@H](CC(C)C)C(=O)N[C@@H](Cc1c[nH]cn1)C(=O)N[C@@H](CCC(=O)O)C(=O)N[C@@H](CC(C)C)C(=O)N[C@@H](C)C(=O)N[C@H](C(=O)N[C@@H](CC(C)C)C(=O)N1CCC[C@H]1C(=O)N[C@@H](CCCNC(=N)N)C(=O)N[C@H](C(=O)N[C@@H](CCC(=O)O)C(=O)N[C@H](C(=O)NCC(=O)N[C@@H](CO)C(=O)NCC(=O)N[C@@H](CO)C(=O)NCC(N)=O)[C@@H](C)O)[C@@H](C)O)[C@@H](C)O) [[N-terminal(C20 diacid-gGlu), des1, 30S, 31G, 33G]mimylin] | 142 | 66 |
| {C20 diacid-γGlu}-ASELSTAALGHLSAELHELATLPRTETGSGSP-NH2 [[N-terminal(C20 diacid-gGlu), des1, 12H, 30S, 31G]mimylin] | 17 | 12 |
